Experiments:
[1] = Murine hematotoxicity assay; type: in vivo, BALB/c mice; conditions: 3 mg/kg i.v. QW×4, compared to vehicle or MMAE treatment
Procedure: Murine hematotoxicity experiments were conducted at Charles River Laboratories and the care and use of animals was conducted in accordance with the regulations of the Association for Assessment and Accreditation of Laboratory Animal Care (AAALAC). Wild type BALB/c, female, 7-8 weeks, weighing approximately 18-22 g were randomized and dosed intravenously with control or test articles at a QW×4 schedule. Dosing volume was adjusted based on body weight and was administered at 10 mL/Kg. PDCs were dissolved in 25 mM Histidine 10% sucrose pH 7 and 3 mg/kg was administered. Free MMAE payload was also tested, and similarly dissolved in 25 mM Histidine 10% sucrose pH 7 and administered to the mice at a dose of […] by i.v. injection at a QW×4 schedule. 3 days following each dose, 150 μL of whole blood was collected via submandibular method and placed in K2 EDTA tubes stored on ice. Blood neutrophil counts were performed on the day of collection by IDEXX labs. Body weights were recorded twice a week until study endpoint.
As outlined in the material and methods of Example 1, wild type BALB/c, female, 7-8 weeks, weighing approximately 18-22 g were randomized and dosed intravenously with control or test articles at a QW×4 schedule. Dosing volume was adjusted based on body weight and was administered at 10 ml/Kg. […] Free MMAE payload was also tested, and similarly dissolved in 25 mM Histidine 10% sucrose pH 7 and administered to the mice at a dose of […] by i.v. injection at a QW×4 schedule. 3 days following each dose, 150 μL of whole blood was collected via submandibular method and placed in K2 EDTA tubes stored on ice. Blood neutrophil counts were performed on the day of collection by IDEXX labs. Body weights were recorded twice a week until study endpoint.

[2] = Maximum tolerated dose (MTD) study; type: in vivo, BALB/c Nude mice; conditions: for body weight loss: after 48 hrs
Procedure: BALB/c Nude mice, female, 6-8 weeks, weighing approximately 18-22 g were purchased from the Shanghai SLAC Laboratory Animal Co., LTD. MTD studies were conducted at WuXi AppTec and the care and use of animals was conducted in accordance with the regulations of the Association for Assessment and Accreditation of Laboratory Animal Care (AAALAC). Two MTD studies were performed (a) a low dose study with doses ranging from 0.1, 0.5, 1 and 3 mg/kg and (b) a high dose study with doses ranging from 3, 5, 10 mg/kg. Dosing volume was determined based on body weight (10 ul/g) and PDCs were dissolved in 25 mM Histidine 10% sucrose pH 7 and administered i.v. at a single dose at day 0. The treatment and observation were conducted up to 7 days and MTD was defined by ≥20% body weight loss. Body weights were measured daily, death and observed clinical signs were recorded.
Doses of 3, 5, and 10 mg/kg were administered. MTD was defined by ≥20% body weight loss and body weight measured daily.

SORT1 = molecular target: T1, SORT1 (Homo sapiens, UniProt Q99523); assay: Competition binding in FP; conditions: FP competition binding assays, PDC vs parent peptide
T1 construct: Human SORT1 (78-755)-His (Acrobiosystems); His (C); purchased Acrobiosystems SON—H52H5
T1 sequence (Q99523 78-755): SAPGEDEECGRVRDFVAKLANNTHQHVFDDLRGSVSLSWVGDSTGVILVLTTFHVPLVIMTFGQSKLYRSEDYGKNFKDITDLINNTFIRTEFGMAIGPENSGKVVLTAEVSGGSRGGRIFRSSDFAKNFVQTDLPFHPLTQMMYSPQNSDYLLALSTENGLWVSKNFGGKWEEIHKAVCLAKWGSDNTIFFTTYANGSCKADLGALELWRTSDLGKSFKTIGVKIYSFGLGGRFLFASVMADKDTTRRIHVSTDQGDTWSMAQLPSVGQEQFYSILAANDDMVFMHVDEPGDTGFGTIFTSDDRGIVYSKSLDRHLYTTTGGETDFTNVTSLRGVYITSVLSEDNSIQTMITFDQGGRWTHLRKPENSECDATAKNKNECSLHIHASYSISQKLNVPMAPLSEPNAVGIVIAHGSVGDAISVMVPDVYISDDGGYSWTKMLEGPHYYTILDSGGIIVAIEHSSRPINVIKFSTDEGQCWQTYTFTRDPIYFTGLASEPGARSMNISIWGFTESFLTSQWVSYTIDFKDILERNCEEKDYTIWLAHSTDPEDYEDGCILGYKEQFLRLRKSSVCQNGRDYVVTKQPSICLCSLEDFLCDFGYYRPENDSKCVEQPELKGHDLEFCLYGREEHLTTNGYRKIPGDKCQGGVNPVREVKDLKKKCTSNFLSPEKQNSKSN
Procedure: Competition binding studies were conducted in a similar manner to the direct binding protocol. Unlabeled peptides were prepared with a 12-point, two-fold dilution series in a V-bottom 96-well plate for a total volume of 25 μL with a starting concentration of 50 μM. A 10× working stock of the FAM labeled peptide was prepared as described for the Direct binding experiment.
An aliquot of 20 μL of the 500 nM working solution was then added to 2.5 μL of the FAM-peptide, after which 2.5 μL of the unlabeled peptide dilution series was added and mixed by pipetting in a V-bottom 96-well plate. Samples were allowed to incubate for 15 minutes, then 10 μL of the mixture was transferred to an opaque black 384-well non-binding FP plate (Corning® Low Volume 384-well Black Flat Bottom Polystyrene NBS Microplate, #3820) in technical duplicates. The 384-well plate was then centrifuged 1 min, 4000 rpm and fluorescence and polarization of dye measured on a Biotek Synergy Neo2 plate reader using the same settings as for the Direct Binding experiment. Data were then fitted to a One site—Fit logIC50 curve in GraphPad to calculate the IC50.

[3] = CMC formulation buffer screen (shake flask solubility); type: physicochemical; conditions: 0.5 mg/mL
Procedure: Exemplary conjugate agents (e.g., sortilin binding agents), referred to in the present Example as “peptide drug conjugates” or “PDCs” were assessed in a formulation screen to determine an appropriate vehicle for in vivo studies and to assess precipitation risk. PDC solutions were made up to 0.5 mg/mL in the following buffers: 25 mM Histidine 10% sucrose pH 7, 50 mM acetate/acetic acid, 10% sucrose pH 5, 1×PBS pH 7.4, Saline, 50 mM HEPES 10% sucrose pH 7. Solubility was assessed using a shake flask method and the test compound concentration of the filtrate was confirmed using HPLC-UV.
The following buffers were screened: 25 mM Histidine 10% sucrose pH 7, 50 mM acetate/acetic acid, 10% sucrose pH 5, 1×PBS pH 7.4, Saline, 50 mM HEPES 10% sucrose pH 7. The PDCs were soluble in all buffers tested (Table 1), and we proceed to use 25 mM Histidine, 10% sucrose pH 7 as our buffer of choice for our in vivo studies.

In the case of `CC[C@H](C)[C@@H]([C@@H](CC(=O)N1CCC[C@H]1[C@H](OC)[C@@H](C)C(=O)N[C@H](C)[C@@H](O)c1ccccc1)OC)N(C)C(=O)[C@@H](NC(=O)[C@H](C(C)C)N(C)C(=O)OCc1ccc(NC(=O)[C@H](CCCNC(N)=O)NC(=O)[C@@H](NC(=O)CCCC(=O)NCCC(=O)N(C)CC(=O)N(C)CC(=O)N(C)CC(=O)N(C)CC(=O)N[C@@H](C)C(=O)N2CCC[C@H]2C(=O)N[C@@H](CCCNC(=N)N)C(=O)N[C@@H](Cc2c[nH]c3ccccc23)C(=O)N[C@@H](CC(=O)O)C(=O)N[C@@H](C)C(=O)N2CCC[C@H]2C(=O)N[C@@H](CC(C)C)C(=O)N[C@@H](CCCNC(=N)N)C(=O)N[C@@H](CC(=O)O)C(=O)N2CCC[C@H]2C(=O)N[C@@H](C)C(=O)N[C@@H](CC(C)C)C(=O)N[C@@H](CCCNC(=N)N)C(=O)N[C@@H](CCC(N)=O)C(=O)N[C@@H](CC(C)C)C(=O)N[C@@H](CC(C)C)C(=O)O)C(C)C)cc1)C(C)C` [PRGN_WT_PDC], the blood neutrophil counts [1] is reported as “reduced neutrophil counts”, the body weight loss ([2]; 5 mg/kg single i.v. dose, recovered at Day 7) is reported as about 15% and the “toxicity” value ([2]; 10 mg/kg single i.v. dose) is reported as “significant toxicity”. For the same compound, the body weight loss ([2]; 10 mg/kg single i.v. dose) was “greater than 20%”, the “increase in affinity relative to parent homing peptide” value (SORT1) was about 2.5 × and the formulation screen result ([3]; 25 mM Histidine 10% sucrose pH 7) was “clear solution”. For the same compound, the formulation screen result ([3]; 50 mM HEPES 10% sucrose pH 7) was “clear solution”, the formulation screen result ([3]; 50 mM acetate/acetic acid, 10% sucrose pH 5) was “clear solution” and the formulation screen result ([3]; 1x PBS pH 7.4) was “clear solution”. For the same compound, the formulation screen result ([3]; Saline) was “clear solution”.
